Measurements as given in US20260250418A1.

Tests used:
[1] = target: monkey MET on NIH3T3-fasMET cells (monkey) (UniProt A0M8R7); assay: flow cytometry, transfected NIH3T3 cells
[2] = target: human MET on NIH3T3-hMET cells (human) (UniProt P08581); assay: flow cytometry, transfected NIH3T3 cells
[3] = target: mouse HER3 on CHO-mHER3 cells (mouse) (UniProt Q61526); assay: flow cytometry, transfected CHO cells
[4] = target: dog HER3 on CHO-dHER3 cells (dog); assay: flow cytometry, transfected CHO cells
[5] = target: monkey (Macaca fascicularis) HER3 on CHO-fasHER3 cells (monkey (Macaca fascicularis)); assay: flow cytometry, transfected CHO cells
[6] = target: human HER3 on CHO-hHER3 cells (human) (UniProt P21860); assay: flow cytometry, transfected CHO cells

Sequence of monkey MET on NIH3T3-fasMET cells (monkey) (A0M8R7 25-1381 S170N/I621T limits assumed): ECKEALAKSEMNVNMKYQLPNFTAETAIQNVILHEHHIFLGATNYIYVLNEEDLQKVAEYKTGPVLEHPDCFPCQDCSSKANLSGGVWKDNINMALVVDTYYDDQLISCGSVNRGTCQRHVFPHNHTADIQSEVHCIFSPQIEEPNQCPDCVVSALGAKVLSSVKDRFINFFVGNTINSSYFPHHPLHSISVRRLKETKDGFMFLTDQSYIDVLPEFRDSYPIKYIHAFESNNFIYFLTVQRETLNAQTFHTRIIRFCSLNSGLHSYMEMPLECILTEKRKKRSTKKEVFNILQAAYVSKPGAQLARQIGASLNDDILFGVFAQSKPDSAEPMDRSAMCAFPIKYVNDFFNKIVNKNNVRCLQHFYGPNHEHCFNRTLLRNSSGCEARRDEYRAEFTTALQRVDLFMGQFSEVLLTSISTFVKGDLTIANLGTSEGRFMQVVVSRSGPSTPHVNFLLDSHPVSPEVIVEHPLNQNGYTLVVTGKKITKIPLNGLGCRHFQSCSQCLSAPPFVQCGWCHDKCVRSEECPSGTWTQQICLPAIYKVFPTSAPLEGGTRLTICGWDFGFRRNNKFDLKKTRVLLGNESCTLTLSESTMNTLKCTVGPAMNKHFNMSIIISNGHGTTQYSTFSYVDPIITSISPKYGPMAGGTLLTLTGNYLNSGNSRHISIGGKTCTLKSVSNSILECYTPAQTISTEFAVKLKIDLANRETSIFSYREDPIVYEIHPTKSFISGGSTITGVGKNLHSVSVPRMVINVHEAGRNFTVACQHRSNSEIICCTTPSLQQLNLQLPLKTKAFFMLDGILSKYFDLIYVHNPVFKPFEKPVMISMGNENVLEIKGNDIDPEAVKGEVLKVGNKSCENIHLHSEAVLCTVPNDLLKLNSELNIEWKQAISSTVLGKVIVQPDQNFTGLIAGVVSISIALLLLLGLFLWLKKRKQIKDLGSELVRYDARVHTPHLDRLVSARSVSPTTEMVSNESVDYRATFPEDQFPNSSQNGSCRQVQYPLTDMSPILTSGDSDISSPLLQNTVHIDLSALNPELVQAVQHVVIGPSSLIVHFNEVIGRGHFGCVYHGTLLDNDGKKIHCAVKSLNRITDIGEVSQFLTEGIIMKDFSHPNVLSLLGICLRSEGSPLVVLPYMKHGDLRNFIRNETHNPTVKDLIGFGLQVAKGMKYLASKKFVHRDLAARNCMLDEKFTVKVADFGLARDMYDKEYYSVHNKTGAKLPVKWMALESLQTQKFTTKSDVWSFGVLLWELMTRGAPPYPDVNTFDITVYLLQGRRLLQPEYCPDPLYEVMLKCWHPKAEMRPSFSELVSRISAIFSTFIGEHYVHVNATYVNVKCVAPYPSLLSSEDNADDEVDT
Sequence of human MET on NIH3T3-hMET cells (human) (P08581 25-1390 limits assumed): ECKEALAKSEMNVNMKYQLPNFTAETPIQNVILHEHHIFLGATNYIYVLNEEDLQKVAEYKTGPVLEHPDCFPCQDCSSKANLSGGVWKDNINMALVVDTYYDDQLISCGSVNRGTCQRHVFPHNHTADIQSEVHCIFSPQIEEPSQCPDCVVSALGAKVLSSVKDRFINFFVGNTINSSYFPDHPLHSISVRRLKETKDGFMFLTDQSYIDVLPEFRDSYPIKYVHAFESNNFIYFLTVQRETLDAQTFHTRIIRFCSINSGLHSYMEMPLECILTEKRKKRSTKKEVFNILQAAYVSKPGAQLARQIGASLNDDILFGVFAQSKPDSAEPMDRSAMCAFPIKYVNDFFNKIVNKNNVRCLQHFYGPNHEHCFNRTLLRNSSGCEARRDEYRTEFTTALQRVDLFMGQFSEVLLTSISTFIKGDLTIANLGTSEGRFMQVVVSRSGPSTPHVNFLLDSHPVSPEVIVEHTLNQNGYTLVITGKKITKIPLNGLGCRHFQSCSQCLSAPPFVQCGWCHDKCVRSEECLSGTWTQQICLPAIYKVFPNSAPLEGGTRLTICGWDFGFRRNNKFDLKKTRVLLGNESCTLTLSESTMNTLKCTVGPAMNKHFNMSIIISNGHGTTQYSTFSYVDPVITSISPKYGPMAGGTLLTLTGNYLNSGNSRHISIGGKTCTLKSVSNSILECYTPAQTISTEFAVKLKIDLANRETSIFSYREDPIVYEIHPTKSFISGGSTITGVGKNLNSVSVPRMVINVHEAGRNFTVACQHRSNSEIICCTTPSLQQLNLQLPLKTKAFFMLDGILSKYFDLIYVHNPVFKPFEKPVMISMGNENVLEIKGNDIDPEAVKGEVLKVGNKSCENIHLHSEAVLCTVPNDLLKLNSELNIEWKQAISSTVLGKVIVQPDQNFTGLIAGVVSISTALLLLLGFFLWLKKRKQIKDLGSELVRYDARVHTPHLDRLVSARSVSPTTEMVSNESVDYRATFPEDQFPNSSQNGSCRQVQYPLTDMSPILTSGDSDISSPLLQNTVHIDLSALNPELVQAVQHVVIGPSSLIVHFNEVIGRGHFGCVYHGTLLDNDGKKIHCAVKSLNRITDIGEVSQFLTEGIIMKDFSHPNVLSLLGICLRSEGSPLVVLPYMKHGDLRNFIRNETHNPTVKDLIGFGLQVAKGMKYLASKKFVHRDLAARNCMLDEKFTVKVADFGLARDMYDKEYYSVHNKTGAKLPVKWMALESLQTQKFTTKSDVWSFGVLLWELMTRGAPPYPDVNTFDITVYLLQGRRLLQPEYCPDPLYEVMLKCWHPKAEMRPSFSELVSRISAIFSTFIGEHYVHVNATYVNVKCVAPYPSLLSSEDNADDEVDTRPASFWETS
Sequence of mouse HER3 on CHO-mHER3 cells (mouse) (Q61526 20-641): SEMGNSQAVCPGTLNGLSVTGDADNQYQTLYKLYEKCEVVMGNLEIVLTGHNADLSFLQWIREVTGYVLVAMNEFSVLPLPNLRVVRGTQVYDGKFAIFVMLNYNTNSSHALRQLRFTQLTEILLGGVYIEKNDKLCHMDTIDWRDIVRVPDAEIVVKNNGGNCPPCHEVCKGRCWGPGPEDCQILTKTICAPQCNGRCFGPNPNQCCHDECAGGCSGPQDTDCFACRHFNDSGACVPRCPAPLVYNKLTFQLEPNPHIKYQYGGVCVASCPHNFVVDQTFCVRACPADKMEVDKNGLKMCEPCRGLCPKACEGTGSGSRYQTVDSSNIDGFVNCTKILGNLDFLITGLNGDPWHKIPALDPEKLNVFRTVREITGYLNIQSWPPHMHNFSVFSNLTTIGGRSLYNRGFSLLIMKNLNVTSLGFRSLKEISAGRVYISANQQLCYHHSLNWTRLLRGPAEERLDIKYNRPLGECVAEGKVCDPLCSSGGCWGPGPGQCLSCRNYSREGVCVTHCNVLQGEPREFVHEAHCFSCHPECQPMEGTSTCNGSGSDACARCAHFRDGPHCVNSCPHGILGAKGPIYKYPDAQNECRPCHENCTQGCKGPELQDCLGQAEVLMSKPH

Positive Cells [1] [%] | Positive Cells [2] [%] | Percentage of Positive Cells [3] [%] | Percentage of Positive Cells [4] [%] | Percentage of Positive Cells [5] [%] | Positive Cells [5] [%] | Percentage of Positive Cells [6] [%] | Positive Cells [6] [%] | Substance
0.6 | 2.4 | 0.5 | 1.6 | 0.9 | 2.7 | 1.7 | 2.8 | NC + secondary antibody
0.5 | 3.9 | 0.2 | 1 | 0.2 | 3.2 | 0.4 | 2.1 | NC
